From article PMC7425812 (Nature cell biology, 2020)
Where two headings read alike, the source gives them in different places.

B1: FLAG-HA-tagged AKAP95 (FH-AKAP95), wild type (natural protein)
chain: not shown
B2: AKAP95 (endogenous, HeLa cell nuclear extract) (natural protein)
chain: not shown

Tests used:
[1] = molecular target: the molecule itself; test: SDS-resistant dimer on SDS-PAGE immunoblot
[2] = molecular target: the molecule itself; test: SDS-resistant dimer on SDS-PAGE immunoblot; remark: listed apart in the source

Protein | stoichiometry N [1] | stoichiometry N [2]
B1 | 2 | –
B2 | – | 2
